{
  "source": "IntAct's records for PubMed 17167415",
  "parents": {"B1": {"name": "DNA replication regulator SLD3 (Saccharomyces cerevisiae), P53135 (parent)", "chain": "METWEVIASVKEATKGLDLSLDHPLIIKSEDVPSNILQLLQQKNRRQLKHICMKSRKEYFLLEEYGPGFWVKWPYNYFNGYSLPERRTEVVTTVERERAKRETLKTWDELKFKELLHLWSEEPKGSCKLEKDKDLKLDMNPPDMKGESKINDYYSDPKEYIESKYYDALFSIHTPLAYFVKSNLVRLKNTCRTKYGSDSYKIAYQAMLQKFLLSIVQFKDRHDNRLLLEPFSSPIADEKRKNCLTKFVIQDENKNSSTIADLCVVLKSREIKLQILLLLEIIGLNDLDWNFRDFEKKYKLKLKKRSLNLTKKGLVRRRSKKKTSEKDKGIERITTSLDYCEQLDLYLDRACILDILLSSETPNPDAIEASNGTIQEHKKNILDKSKEASLVGFINYVLIPYFNKKVPHAVEFIIQKLKGPSMRPKRALKKVNDSTNVSSPNTVETYNRLSTSQRASRSSIINSVPSSPALRRVDANLFSRKSIASPTPELLNSRTNSNLNEFLESETRSLKRPSQLGRTKSDLTMNHLQKRQFSVSDLSTTRVPNSSTITLKTPFSHSTINAYKTMNNSFRRVGKRKDINETIRLHERVDSEENVQVQATPAVKKRTVTPNKKAQLQSIIESPLNFKDDDTHEGRKNTSNITSTPTNKPPENSSKRRVRRRLFAPEST", "partner": "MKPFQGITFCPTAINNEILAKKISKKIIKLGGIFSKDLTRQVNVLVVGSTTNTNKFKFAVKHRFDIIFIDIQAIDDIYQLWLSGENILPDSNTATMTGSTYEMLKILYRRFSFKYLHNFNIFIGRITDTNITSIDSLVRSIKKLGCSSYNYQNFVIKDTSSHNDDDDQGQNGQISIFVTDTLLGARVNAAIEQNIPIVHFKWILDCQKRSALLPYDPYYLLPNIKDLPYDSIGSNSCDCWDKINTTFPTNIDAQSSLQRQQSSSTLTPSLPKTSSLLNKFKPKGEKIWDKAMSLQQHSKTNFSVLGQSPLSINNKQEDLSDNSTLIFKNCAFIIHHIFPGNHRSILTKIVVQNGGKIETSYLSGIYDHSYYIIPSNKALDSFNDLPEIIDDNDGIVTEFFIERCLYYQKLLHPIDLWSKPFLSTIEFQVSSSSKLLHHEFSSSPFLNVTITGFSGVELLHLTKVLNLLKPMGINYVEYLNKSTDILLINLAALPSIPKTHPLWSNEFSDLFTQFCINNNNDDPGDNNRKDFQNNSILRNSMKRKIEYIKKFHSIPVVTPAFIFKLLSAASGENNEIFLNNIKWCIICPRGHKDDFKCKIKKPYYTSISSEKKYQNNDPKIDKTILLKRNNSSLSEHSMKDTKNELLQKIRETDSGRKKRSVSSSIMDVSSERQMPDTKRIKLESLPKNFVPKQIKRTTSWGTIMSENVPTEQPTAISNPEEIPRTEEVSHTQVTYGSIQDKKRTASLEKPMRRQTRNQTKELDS"}},
  "data": [
    {"variants_of": "B1", "conditions": "with dpb11_yeast DPB11, P47027", "values": [
      {"variant": "T600A;S622A", "effect of a mutation on the interaction": "disrupting interaction strength"}
    ]}
  ]
}
